T1: human IL-8 (interleukin-8) (human, UniProt P10145 28-99, limits assumed)
T1 construct: also called recombinant human IL-8
T1 sequence (looked up): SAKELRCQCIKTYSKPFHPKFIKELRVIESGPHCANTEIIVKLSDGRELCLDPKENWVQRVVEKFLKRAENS

T2: recombinant human Groβ (human, UniProt P19875 35-107)
T2 construct: also called Gro-beta
T2 sequence (looked up): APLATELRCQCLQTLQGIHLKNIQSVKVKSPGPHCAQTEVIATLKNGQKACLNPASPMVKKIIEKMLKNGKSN

T3: recombinant human ENA-78 (human, UniProt P42830 37-114)
T3 sequence (looked up): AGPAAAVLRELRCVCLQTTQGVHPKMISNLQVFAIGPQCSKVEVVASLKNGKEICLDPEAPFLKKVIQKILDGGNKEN


Assays:
[1] = target: T1, human IL-8 (interleukin-8); test: SPR (Biacore T100/A100), mouse mAb captured on anti-mouse IgG-Fc, IL-8 as analyte, 1:1 model
From the text: Protein A or rabbit anti mouse IgG-Fc (Biacore BR-1005-14) was immobilised on a CM5 (Biacore BR-1000-14) chip by primary amine coupling in accordance with the manufactures instructions. Supernatant or purified from parental mouse mAb was captured on the antimouse IgG-Fc surface whilst chimeric antibody was captured on the Protein A surface. After capture defined concentrations of IL8 are passed over the antibody captured surface, a separate capture event was used for each analyte injection. […] An injection of buffer was also passed over the antibody captured surface and this was used for double referencing. For the analysis of the parental supernatant, an additional injection of an irrelevant mAb supernatant was injected over the antibody captured surface to detect any non-specific binding due to supernatant components. The data were analysed using the analysis software inherent to the machine, using the 1:1 model of binding. The work was carried out on the Biacore T100 or A100.

[2] = target: T2, recombinant human Groβ; test: ELISA, hybridoma supernatant on immobilized recombinant chemokine
From the text: (§1) Hyridoma supernatants were screened for their antibody binding activities to recombinant human IL-8, Groβ and ENA-78, immobilized on ELISA plates. […] They were further assessed for their ability to recognize guinea pig and cynomolgus monkey orthologues. Selected hybridomas were cloned by limiting dilution cloning. The antibody designated 1C1.5E5 was one of the antibodies specific for human IL-8 that were selected for further analysis. Following humanization, the antibody combinations designated A0L0, A0L1, A0L2, AIL0, AIL1, and AIL2 also were determined to retain the ability to bind human IL-8.

[3] = target: T3, recombinant human ENA-78; test: as above
From the text: as §1

[4] = target: T1, human IL-8 (interleukin-8); test: SPR (Biacore T100, 25 C), antibody captured on anti-human IgG, IL-8 as analyte, 1:1 model, Run 2
From the text: (§2) Briefly the method for Biacore analysis was as follows, anti human IgG (Biacore BR-1008-39) was immobilised on a CM5 sensor chip via primary amine coupling. The humanised or chimeric antibodies were captured on this surface at between 440-500 resonance units (RU's). IL8 was then passed over the captured antibody surface at defined concentrations with regeneration using 3M MgCl₂ after each cycle. A buffer injection over the antibody captured surface was used for double referencing. The run was carried out at 25° C. using HBS-EP buffer, on A Biacore T100 machine. The data was analysed using the 1:1 model in the analysis software inherent to the machine. Table below details the results from two separate runs. Run 1 used IL8 concentrations of 64 nM, 16 nM, 4 nM, 1 nM, 0.25 nM, whilst Run 2 used II8 concentrations 32 nM, 16 nM, 8 nM, 4 nM, 2 nM, 1 nM, 0.5 nM, 0.25 nM.

[5] = target: T1, human IL-8 (interleukin-8); test: SPR (Biacore T100, 25 C), antibody captured on anti-human IgG, IL-8 as analyte, 1:1 model, Run 1
From the text: as §2

[6] = target: T1, human IL-8 (interleukin-8); test: ELISA

Kd [1] [nM]	koff [1] [s⁻¹]	binding result [2]	binding result [3]	Kd [4] [nM]	koff [4] [s⁻¹]	kon [4] [M⁻¹ s⁻¹]	Kd [5] [nM]	koff [5] [s⁻¹]	kon [5] [M⁻¹ s⁻¹]	binding result [6]	Binder
0.0454	0.000184	no binding	no binding								mouse monoclonal antibody 1C1.5E5 (antibody, V domains shown, also called 1C1.5E5 mAb) VH: QVQLQQPGVELVMPGASVKLSCKASGYTFTSYWMHWVKQRPGQGLEWIGEIDPSDSNTNYNQKFKGKATLTLDKSSSTAYMQLTSLTSEDSAVYYCARELLHAVYWGQGTTLTVSS VL: DIQMTQSPSSLSASLGGKVTITCTASQDIHKYISWFQHKPGKGPRLLIHYTSTLQPGIPSRFSGSGSGRDYSFSISNLEPEDVATYYCLQYDNLWTFGGGTKLDIKR
				0.0211	0.000566	2.68e+07	0.0184	0.000506	2.75e+07		chimeric antibody HcLc made from murine 1C1.5E5 (antibody, human IgG1, kappa, V domains shown, Murine variable regions on human IgG1 and human kappa constant regions; also called chimera) VH: QVQLQQPGVELVMPGASVKLSCKASGYTFTSYWMHWVKQRPGQGLEWIGEIDPSDSNTNYNQKFKGKATLTLDKSSSTAYMQLTSLTSEDSAVYYCARELLHAVYWGQGTLVTVSS VL: DIQMTQSPSSLSASLGGKVTITCTASQDIHKYISWFQHKPGKGPRLLIHYTSTLQPGIPSRFSGSGSGRDYSFSISNLEPEDVATYYCLQYDNLWTFGGGTKLDIKR
				0.0679	0.00106	1.56e+07	0.0676	0.001	1.49e+07		humanized antibody A0L1 (antibody, human IgG1, kappa, V domains shown, Humanized 1C1.5E5, human IgG1/kappa) VH: QVQLVQSGAEVKKPGASVKVSCKASGYTFTSYWMHWVRQAPGQGLEWMGEIDPSDSNTNYNQKFKGRVTMTRDTSISTAYMELSRLRSDDTAVYYCARELLHAVYWGQGTLVTVSS VL: DIQMTQSPSSLSASVGDRVTITCTASQDIHKYISWYQQKPGKAPKLLIHYTSTLQPGVPSRFSGSGSGTDFTFTISSLQPEDIATYYCLQYDNLWTFGQGTKVEIKR
										binds	humanized antibody A1L1 (antibody, human IgG1, kappa, V domains shown, Humanized 1C1.5E5, human IgG1/kappa; also called AIL1) VH: QVQLVQSGAEVKKPGASVKVSCKASGYTFTSYWMHWVRQAPGQGLEWMGEIDPSDSNTNYNQKFKGKVTMTRDTSISTAYMELSRLRSDDTAVYYCARELLHAVYWGQGTLVTVSS VL: DIQMTQSPSSLSASVGDRVTITCTASQDIHKYISWYQQKPGKAPKLLIHYTSTLQPGVPSRFSGSGSGTDFTFTISSLQPEDIATYYCLQYDNLWTFGQGTKVEIKR
										binds	humanized antibody A1L2 (antibody, human IgG1, kappa, V domains shown, Humanized 1C1.5E5, human IgG1/kappa; also called AIL2) VH: QVQLVQSGAEVKKPGASVKVSCKASGYTFTSYWMHWVRQAPGQGLEWMGEIDPSDSNTNYNQKFKGKVTMTRDTSISTAYMELSRLRSDDTAVYYCARELLHAVYWGQGTLVTVSS VL: DIQMTQSPSSLSASVGDRVTITCTASQDIHKYISWYQQKPGKAPKLLIHYTSTLQPGVPSRFSGSGSGTDYTFTISSLQPEDIATYYCLQYDNLWTFGQGTKVEIKR
										binds	humanized antibody A0L2 (antibody, human IgG1, kappa, V domains shown, Humanized 1C1.5E5, human IgG1/kappa) VH: QVQLVQSGAEVKKPGASVKVSCKASGYTFTSYWMHWVRQAPGQGLEWMGEIDPSDSNTNYNQKFKGRVTMTRDTSISTAYMELSRLRSDDTAVYYCARELLHAVYWGQGTLVTVSS VL: DIQMTQSPSSLSASVGDRVTITCTASQDIHKYISWYQQKPGKAPKLLIHYTSTLQPGVPSRFSGSGSGTDYTFTISSLQPEDIATYYCLQYDNLWTFGQGTKVEIKR
				0.0954	0.00075	7.87e+06	0.0872	0.000735	8.43e+06		humanized antibody A1L0 (antibody, human IgG1, kappa, V domains shown, Humanized 1C1.5E5, human IgG1/kappa; also called AIL0) VH: QVQLVQSGAEVKKPGASVKVSCKASGYTFTSYWMHWVRQAPGQGLEWMGEIDPSDSNTNYNQKFKGKVTMTRDTSISTAYMELSRLRSDDTAVYYCARELLHAVYWGQGTLVTVSS VL: DIQMTQSPSSLSASVGDRVTITCTASQDIHKYISWYQQKPGKAPKLLIYDTSTLQPGVPSRFSGSGSGTDFTFTISSLQPEDIATYYCLQYDNLWTFGQGTKVEIKR
				0.0816	0.000772	9.5e+06	0.0712	0.000791	1.11e+07		humanized antibody A0L0 (antibody, human IgG1, kappa, V domains shown, Humanized 1C1.5E5, human IgG1/kappa) VH: QVQLVQSGAEVKKPGASVKVSCKASGYTFTSYWMHWVRQAPGQGLEWMGEIDPSDSNTNYNQKFKGRVTMTRDTSISTAYMELSRLRSDDTAVYYCARELLHAVYWGQGTLVTVSS VL: DIQMTQSPSSLSASVGDRVTITCTASQDIHKYISWYQQKPGKAPKLLIYDTSTLQPGVPSRFSGSGSGTDFTFTISSLQPEDIATYYCLQYDNLWTFGQGTKVEIKR

Reference: patent US20110105724A1 (published 2011)
